Results: IntAct's records for PubMed 35512704

B1: Mothers against decapentaplegic homolog 4 (Homo sapiens), Q13485 (parent)
chain: MDNMSITNTPTSNDACLSIVHSLMCHRQGGESETFAKRAIESLVKKLKEKKDELDSLITAITTNGAHPSKCVTIQRTLDGRLQVAGRKGFPHVIYARLWRWPDLHKNELKHVKYCQYAFDLKCDSVCVNPYHYERVVSPGIDLSGLTLQSNAPSSMMVKDEYVHDFEGQPSLSTEGHSIQTIQHPPSNRASTETYSTPALLAPSESNATSTANFPNIPVASTSQPASILGGSHSEGLLQIASGPQPGQQQNGFTGQPATYHHNSTTTWTGSRTAPYTPNLPHHQNGHLQHHPPMPPHPGHYWPVHNELAFQPPISNHPAPEYWCSIAYFEMDVQVGETFKVPSSCPIVTVDGYVDPSGGDRFCLGQLSNVHRTEAIERARLHIGKGVQLECKGEGDVWVRCLSDHAVFVQSYYLDREAGRAPGDAVHKIYPSAYIKVFDLRQCHRQMQQQAATAQAAAAAQAAAVAGNIPGPGSVGGIAPAISLSAAAGIGVDDLRRLCILRMSFVKGWGPDYPRQSIKETPCWIEIHLHRALQLLDEVLHTMPIADPQPLD

Variants of: B1
Settings: with smad3_human SMAD3, P84022

Variant | effect of a mutation on the interaction
R361C | disrupting interaction strength

Variants of: B1
Settings: with agap2_human AGAP2, Q99490

Variant | effect of a mutation on the interaction
R361C | with no effect

Variants of: B1
Settings: with ajuba_human AJUBA

Variant | effect of a mutation on the interaction
R361C | with no effect

Variants of: B1
Settings: with akt1_human AKT1, P31749

Variant | effect of a mutation on the interaction
R361C | with no effect

Variants of: B1
Settings: with akts1_human AKT1S1, Q96B36

Variant | effect of a mutation on the interaction
R361C | with no effect

Variants of: B1
Settings: with akt3_human AKT3, Q9Y243

Variant | effect of a mutation on the interaction
R361C | with no effect

Variants of: B1
Settings: with alk_human ALK

Variant | effect of a mutation on the interaction
R361C | with no effect

Variants of: B1
Settings: with aph1a_human APH1A

Variant | effect of a mutation on the interaction
R361C | with no effect

Variants of: B1
Settings: with arc1a_human ARPC1A

Variant | effect of a mutation on the interaction
R361C | with no effect

Variants of: B1
Settings: with asxl1_human ASXL1, Q8IXJ9

Variant | effect of a mutation on the interaction
R361C | with no effect

Variants of: B1
Settings: with bakor_human ATG14, Q6ZNE5

Variant | effect of a mutation on the interaction
R361C | with no effect

Variants of: B1
Settings: with atpb_human ATP5F1B

Variant | effect of a mutation on the interaction
R361C | with no effect

Variants of: B1
Settings: with atrx_human ATRX

Variant | effect of a mutation on the interaction
R361C | with no effect

Variants of: B1
Settings: with aurkb_human AURKB

Variant | effect of a mutation on the interaction
R361C | with no effect

Variants of: B1
Settings: with ufo_human AXL

Variant | effect of a mutation on the interaction
R361C | with no effect

Variants of: B1
Settings: with za2g_human AZGP1, P25311

Variant | effect of a mutation on the interaction
R361C | with no effect

Variants of: B1
Settings: with b2mg_human B2M

Variant | effect of a mutation on the interaction
R361C | with no effect

Variants of: B1
Settings: with bap1_human BAP1, Q92560
Chain of bap1_human BAP1, Q92560 (Q92560 whole entry): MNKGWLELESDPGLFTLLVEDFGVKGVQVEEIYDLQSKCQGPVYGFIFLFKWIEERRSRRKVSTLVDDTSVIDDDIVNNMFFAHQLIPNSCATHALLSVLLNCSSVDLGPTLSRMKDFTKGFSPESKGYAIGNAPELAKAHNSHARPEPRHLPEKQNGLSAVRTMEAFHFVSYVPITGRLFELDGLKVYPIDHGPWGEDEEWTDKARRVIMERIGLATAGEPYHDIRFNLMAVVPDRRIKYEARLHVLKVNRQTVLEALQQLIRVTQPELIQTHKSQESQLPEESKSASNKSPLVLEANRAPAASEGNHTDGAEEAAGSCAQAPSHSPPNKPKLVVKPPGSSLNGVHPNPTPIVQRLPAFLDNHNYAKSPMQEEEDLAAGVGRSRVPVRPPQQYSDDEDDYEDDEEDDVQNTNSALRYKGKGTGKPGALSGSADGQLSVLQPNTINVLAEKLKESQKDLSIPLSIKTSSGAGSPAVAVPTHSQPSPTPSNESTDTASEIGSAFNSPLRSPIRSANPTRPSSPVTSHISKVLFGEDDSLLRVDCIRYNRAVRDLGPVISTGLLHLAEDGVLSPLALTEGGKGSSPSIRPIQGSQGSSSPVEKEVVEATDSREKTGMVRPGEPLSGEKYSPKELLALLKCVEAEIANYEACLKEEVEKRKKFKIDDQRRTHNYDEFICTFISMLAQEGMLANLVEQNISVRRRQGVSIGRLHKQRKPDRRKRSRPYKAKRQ

Variant | effect of a mutation on the interaction
R361C | with no effect

Variants of: B1
Settings: with becn1_human BECN1, Q14457

Variant | effect of a mutation on the interaction
R361C | with no effect

Variants of: B1
Settings: with birc2_human BIRC2, Q13490

Variant | effect of a mutation on the interaction
R361C | with no effect

Variants of: B1
Settings: with braf_human BRAF

Variant | effect of a mutation on the interaction
R361C | with no effect

Variants of: B1
Settings: with cbl_human CBL

Variant | effect of a mutation on the interaction
R361C | with no effect

Variants of: B1
Settings: with cblb_human CBLB

Variant | effect of a mutation on the interaction
R361C | with no effect

Variants of: B1
Settings: with ccnd1_human CCND1, P24385
Chain of ccnd1_human CCND1, P24385 (P24385 whole entry): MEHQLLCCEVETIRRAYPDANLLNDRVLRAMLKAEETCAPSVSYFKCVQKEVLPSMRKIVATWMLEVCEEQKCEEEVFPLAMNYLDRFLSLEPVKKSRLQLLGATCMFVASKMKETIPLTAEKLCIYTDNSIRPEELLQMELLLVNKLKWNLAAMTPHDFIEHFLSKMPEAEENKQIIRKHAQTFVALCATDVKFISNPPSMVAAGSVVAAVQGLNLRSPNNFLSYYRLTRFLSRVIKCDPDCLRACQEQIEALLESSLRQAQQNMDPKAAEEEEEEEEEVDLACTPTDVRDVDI

Variant | effect of a mutation on the interaction
R361C | with no effect

Variants of: B1
Settings: with ccnd2_human CCND2, P30279

Variant | effect of a mutation on the interaction
R361C | with no effect

Variants of: B1
Settings: with ccnd3_human CCND3, P30281

Variant | effect of a mutation on the interaction
R361C | with no effect

Variants of: B1
Settings: with cd44_human CD44, P16070
Chain of cd44_human CD44, P16070 (P16070 whole entry): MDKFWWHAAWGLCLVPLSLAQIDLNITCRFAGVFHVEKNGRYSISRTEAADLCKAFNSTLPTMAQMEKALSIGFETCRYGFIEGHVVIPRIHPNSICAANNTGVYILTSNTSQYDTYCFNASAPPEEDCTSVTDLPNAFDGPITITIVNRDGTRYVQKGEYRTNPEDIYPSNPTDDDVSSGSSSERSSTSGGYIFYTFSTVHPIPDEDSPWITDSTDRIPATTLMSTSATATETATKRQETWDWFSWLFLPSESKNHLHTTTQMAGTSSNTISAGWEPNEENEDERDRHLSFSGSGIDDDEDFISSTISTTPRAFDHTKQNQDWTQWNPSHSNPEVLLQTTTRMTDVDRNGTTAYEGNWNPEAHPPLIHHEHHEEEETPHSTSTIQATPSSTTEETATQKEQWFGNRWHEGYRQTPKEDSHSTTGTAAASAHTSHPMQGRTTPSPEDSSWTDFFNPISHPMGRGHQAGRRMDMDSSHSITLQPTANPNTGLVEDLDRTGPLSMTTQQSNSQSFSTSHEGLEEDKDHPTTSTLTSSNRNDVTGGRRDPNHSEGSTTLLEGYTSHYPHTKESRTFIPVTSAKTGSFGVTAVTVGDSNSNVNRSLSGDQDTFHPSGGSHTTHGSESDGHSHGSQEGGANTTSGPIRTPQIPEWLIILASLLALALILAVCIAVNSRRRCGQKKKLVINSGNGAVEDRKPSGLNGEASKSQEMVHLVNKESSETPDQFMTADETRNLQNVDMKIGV

Variant | effect of a mutation on the interaction
R361C | with no effect

Variants of: B1
Settings: with cd79b_human CD79B

Variant | effect of a mutation on the interaction
R361C | with no effect

Variants of: B1
Settings: with cdk6_human CDK6, Q00534
Chain of cdk6_human CDK6, Q00534 (Q00534 whole entry): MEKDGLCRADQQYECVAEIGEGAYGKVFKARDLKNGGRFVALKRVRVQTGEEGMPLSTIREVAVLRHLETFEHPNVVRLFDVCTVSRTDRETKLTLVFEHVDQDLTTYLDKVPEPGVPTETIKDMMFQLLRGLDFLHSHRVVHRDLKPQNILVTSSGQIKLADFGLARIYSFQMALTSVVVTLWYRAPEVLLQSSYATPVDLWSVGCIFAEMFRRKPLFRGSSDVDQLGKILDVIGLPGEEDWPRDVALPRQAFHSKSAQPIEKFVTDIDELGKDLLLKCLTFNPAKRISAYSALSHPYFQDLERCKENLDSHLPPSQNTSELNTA

Variant | effect of a mutation on the interaction
R361C | with no effect

Variants of: B1
Settings: with cdn2b_human CDKN2B

Variant | effect of a mutation on the interaction
R361C | with no effect

Variants of: B1
Settings: with cdn2c_human CDKN2C

Variant | effect of a mutation on the interaction
R361C | with no effect

Variants of: B1
Settings: with cebpa_human CEBPA

Variant | effect of a mutation on the interaction
R361C | with no effect

Variants of: B1
Settings: with ch3l1_human CHI3L1, P36222

Variant | effect of a mutation on the interaction
R361C | with no effect

Variants of: B1
Settings: with ctna1_human CTNNA1, P35221

Variant | effect of a mutation on the interaction
R361C | with no effect

Variants of: B1
Settings: with ctnb1_human CTNNB1, P35222

Variant | effect of a mutation on the interaction
R361C | with no effect

Variants of: B1
Settings: with cul3_human CUL3, Q13618

Variant | effect of a mutation on the interaction
R361C | with no effect

Variants of: B1
Settings: with dicer_human DICER1, Q9UPY3

Variant | effect of a mutation on the interaction
R361C | with no effect

Variants of: B1
Settings: with duox2_human DUOX2, Q9NRD8

Variant | effect of a mutation on the interaction
R361C | with no effect

Variants of: B1
Settings: with e2f1_human E2F1, Q01094

Variant | effect of a mutation on the interaction
R361C | with no effect

Variants of: B1
Settings: with e2f2_human E2F2, Q14209

Variant | effect of a mutation on the interaction
R361C | with no effect

Variants of: B1
Settings: with e2f4_human E2F4, Q16254
Chain of e2f4_human E2F4, Q16254 (Q16254 whole entry): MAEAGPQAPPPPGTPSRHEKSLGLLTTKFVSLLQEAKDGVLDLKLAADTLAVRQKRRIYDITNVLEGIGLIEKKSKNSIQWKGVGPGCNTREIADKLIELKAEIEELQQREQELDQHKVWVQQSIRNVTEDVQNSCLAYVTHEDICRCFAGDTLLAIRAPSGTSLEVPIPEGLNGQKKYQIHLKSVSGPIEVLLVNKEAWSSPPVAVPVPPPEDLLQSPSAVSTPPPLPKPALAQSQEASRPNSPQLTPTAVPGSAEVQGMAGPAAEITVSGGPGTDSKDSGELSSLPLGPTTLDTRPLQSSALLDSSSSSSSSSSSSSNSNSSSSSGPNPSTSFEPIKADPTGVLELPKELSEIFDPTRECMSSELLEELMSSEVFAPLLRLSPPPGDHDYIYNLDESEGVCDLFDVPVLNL

Variant | effect of a mutation on the interaction
R361C | with no effect

Variants of: B1
Settings: with e2f5_human E2F5, Q15329
Chain of e2f5_human E2F5, Q15329 (Q15329 whole entry): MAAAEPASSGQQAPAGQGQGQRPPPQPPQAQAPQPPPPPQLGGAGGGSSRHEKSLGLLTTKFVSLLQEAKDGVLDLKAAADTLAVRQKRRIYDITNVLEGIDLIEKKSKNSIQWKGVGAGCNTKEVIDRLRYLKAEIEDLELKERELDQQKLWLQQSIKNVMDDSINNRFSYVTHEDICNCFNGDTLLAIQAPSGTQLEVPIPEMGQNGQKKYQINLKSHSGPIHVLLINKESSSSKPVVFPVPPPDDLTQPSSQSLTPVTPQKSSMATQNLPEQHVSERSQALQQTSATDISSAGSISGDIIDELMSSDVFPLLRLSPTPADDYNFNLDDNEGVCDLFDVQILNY

Variant | effect of a mutation on the interaction
R361C | with no effect

Variants of: B1
Settings: with if4e_human EIF4E

Variant | effect of a mutation on the interaction
R361C | with no effect

Variants of: B1
Settings: with epha7_human EPHA7, Q15375
Chain of epha7_human EPHA7, Q15375 (Q15375 whole entry, looked up): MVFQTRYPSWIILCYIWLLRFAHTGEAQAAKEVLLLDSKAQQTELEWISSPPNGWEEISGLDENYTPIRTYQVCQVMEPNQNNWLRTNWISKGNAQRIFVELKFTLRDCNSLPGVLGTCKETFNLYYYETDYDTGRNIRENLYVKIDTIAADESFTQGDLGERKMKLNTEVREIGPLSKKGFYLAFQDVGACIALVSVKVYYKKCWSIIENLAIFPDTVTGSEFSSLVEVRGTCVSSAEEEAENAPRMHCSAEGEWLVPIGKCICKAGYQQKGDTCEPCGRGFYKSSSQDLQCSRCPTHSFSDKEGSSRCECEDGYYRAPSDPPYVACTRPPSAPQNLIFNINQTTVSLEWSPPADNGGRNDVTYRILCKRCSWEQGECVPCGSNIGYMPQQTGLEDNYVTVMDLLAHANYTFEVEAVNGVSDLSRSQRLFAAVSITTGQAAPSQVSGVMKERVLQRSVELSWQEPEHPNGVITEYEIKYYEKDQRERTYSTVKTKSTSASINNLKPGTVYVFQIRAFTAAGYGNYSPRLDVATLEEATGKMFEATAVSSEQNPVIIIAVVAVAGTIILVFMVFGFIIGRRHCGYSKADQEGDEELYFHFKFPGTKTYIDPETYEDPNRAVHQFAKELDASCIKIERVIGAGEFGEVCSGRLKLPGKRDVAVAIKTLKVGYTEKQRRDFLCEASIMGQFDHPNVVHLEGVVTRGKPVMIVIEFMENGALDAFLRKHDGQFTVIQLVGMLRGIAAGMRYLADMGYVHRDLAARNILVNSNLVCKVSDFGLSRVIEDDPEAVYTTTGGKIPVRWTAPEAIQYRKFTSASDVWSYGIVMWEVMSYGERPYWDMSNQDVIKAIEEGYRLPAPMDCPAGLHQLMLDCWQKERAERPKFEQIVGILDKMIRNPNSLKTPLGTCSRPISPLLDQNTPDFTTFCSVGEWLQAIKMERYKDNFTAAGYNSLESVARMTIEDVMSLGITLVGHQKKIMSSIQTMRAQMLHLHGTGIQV

Variant | effect of a mutation on the interaction
R361C | with no effect

Variants of: B1
Settings: with ephb1_human EPHB1, P54762

Variant | effect of a mutation on the interaction
R361C | with no effect

Variants of: B1
Settings: with erbb4_human ERBB4, Q15303

Variant | effect of a mutation on the interaction
R361C | with no effect

Variants of: B1
Settings: with esr1_human ESR1, P03372

Variant | effect of a mutation on the interaction
R361C | with no effect

Variants of: B1
Settings: with etv1_human ETV1, P50549

Variant | effect of a mutation on the interaction
R361C | with no effect

Variants of: B1
Settings: with fadd_human FADD

Variant | effect of a mutation on the interaction
R361C | with no effect

Variants of: B1
Settings: with facd2_human FANCD2, Q9BXW9

Variant | effect of a mutation on the interaction
R361C | with no effect

Variants of: B1
Settings: with fgf19_human FGF19, O95750
Chain of fgf19_human FGF19, O95750 (O95750 whole entry): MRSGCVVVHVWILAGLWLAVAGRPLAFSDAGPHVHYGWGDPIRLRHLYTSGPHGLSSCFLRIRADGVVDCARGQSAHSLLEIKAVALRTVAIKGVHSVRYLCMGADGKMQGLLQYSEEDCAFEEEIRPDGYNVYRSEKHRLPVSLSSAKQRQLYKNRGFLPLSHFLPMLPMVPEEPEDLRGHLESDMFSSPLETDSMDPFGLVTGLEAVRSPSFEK

Variant | effect of a mutation on the interaction
R361C | with no effect

Variants of: B1
Settings: with fgfr3_human FGFR3, P22607

Variant | effect of a mutation on the interaction
R361C | with no effect

Variants of: B1
Settings: with fgfr4_human FGFR4, P22455

Variant | effect of a mutation on the interaction
R361C | with no effect

Variants of: B1
Settings: with foxo1_human FOXO1, Q12778
Chain of foxo1_human FOXO1, Q12778 (Q12778 whole entry): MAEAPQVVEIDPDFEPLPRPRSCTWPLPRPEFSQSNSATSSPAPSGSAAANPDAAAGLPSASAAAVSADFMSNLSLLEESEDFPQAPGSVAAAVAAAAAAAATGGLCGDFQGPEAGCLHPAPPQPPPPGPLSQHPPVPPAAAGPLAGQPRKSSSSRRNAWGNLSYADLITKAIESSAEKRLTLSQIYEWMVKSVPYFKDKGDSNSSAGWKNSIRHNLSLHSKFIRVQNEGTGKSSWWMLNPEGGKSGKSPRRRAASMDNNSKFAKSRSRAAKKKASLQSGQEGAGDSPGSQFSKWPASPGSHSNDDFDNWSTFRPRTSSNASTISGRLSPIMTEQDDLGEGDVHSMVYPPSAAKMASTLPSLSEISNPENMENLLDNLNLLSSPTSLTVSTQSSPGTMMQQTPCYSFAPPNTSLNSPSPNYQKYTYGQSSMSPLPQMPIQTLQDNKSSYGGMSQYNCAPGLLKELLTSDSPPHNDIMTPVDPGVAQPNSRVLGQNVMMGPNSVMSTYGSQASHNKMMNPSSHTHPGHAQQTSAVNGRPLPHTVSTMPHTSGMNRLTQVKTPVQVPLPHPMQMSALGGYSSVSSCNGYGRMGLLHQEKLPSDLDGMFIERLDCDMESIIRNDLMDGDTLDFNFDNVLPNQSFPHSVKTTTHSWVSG

Variant | effect of a mutation on the interaction
R361C | with no effect

Variants of: B1
Settings: with foxo3_human FOXO3, O43524

Variant | effect of a mutation on the interaction
R361C | with no effect

Variants of: B1
Settings: with gbra6_human GABRA6, Q16445

Variant | effect of a mutation on the interaction
R361C | with no effect

Variants of: B1
Settings: with gata2_human GATA2, P23769

Variant | effect of a mutation on the interaction
R361C | with no effect

Variants of: B1
Settings: with gata3_human GATA3, P23771

Variant | effect of a mutation on the interaction
R361C | with no effect

Variants of: B1
Settings: with gna11_human GNA11, P29992

Variant | effect of a mutation on the interaction
R361C | with no effect

Variants of: B1
Settings: with gnaq_human GNAQ

Variant | effect of a mutation on the interaction
R361C | with no effect
